Reference: patent publication US20230136228A1 (LAMKAP BIO ALPHA, published 2023)
Where a chain is given by its changes, count along the chain named.

Tests used:
human CEACAM3 = biological target: T1, human CEACAM3 (human, UniProt P40198 35-252); assay: flow cytometry, transfected PEAK cells
T1 construct: whole, on cells
T1 sequence (looked up): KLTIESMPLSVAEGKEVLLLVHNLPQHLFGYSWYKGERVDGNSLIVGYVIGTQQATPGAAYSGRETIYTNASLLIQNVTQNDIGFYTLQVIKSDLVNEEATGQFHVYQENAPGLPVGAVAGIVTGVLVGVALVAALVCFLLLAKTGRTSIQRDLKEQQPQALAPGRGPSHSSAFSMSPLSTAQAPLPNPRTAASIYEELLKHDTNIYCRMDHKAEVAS
Source text: (§1) Vectors encoding the full-length version of human CEACAM 1, 3, 4, 5, 6, 7, 8, 18, 19, 20 and […] are used to express these proteins at the surface of PEAK and/or CHO cells as described in Example 1. Similarly, vectors encoding the full-length version of cyno CEACAM 5 and 6 are also used to express these proteins at the surface of PEAK and/or CHO cells. Non-transfected PEAK and/or CHO cells are used as negative control. Cells are harvested, counted, checked for viability and resuspended at 3×10⁶ cells/ml in FACS buffer (PBS 2% BSA, 0.1% NaN₃). 100 μl of the cell suspension are distributed in V-bottom 96-well plates (3×10⁵ cells/well). The supernatant is removed by centrifugation 3 minutes at 4° C., 1300 rpm and the cells incubated for 15 minutes at 4° C. with increasing concentrations of the antibody according to the invention. The antibodies carrying the anti-CEACAM5 arms to test are diluted in FACS buffer and the concentration range is 30 pM-500 nM. Cells are washed twice with cold FACS buffer and re-incubated for further 15 minutes at 4° C. with a compatible anti-human IgG secondary antibody. Cells are washed twice with cold FACS buffer and resuspended in 300 μl FACS buffer with 1:1500-diluted TOPRO-3 (Invitrogen). Fluorescence is measured using a FACSCalibur™ (BD Biosciences) or a Cytoflex Platform (Beckman Coulter). Dose-response binding curves are fitted using GraphPad Prism8 software. In the same manner, CEACAM1, CEACAM6 and other CEACAMs can be characterized.
(§2) For the bispecific antibodies AB17L3-1/N, AB71L3-1/N, AB72L3-1/N, AB73L3-1/N the MFI measured for binding to CEACAM5 transfected cells was found between 29000 and 41000 (Table 2). In contrast MFI found by using PEAK cells transfected with CEACAM 1,3,4,6,8 were found below 1000 with the only exception of a strong signal for AB72L3-1/N on CEACAM8 transfected cells. When MFI values obtained on transfected cells expressing any given CEACAM are divided by the values obtained on WT PEAK cells, “factors to PEAK WT” can be calculated (Table 3).

human CEACAM6 = biological target: T2, human CEACAM6 (human, UniProt P40199 35-320); assay: flow cytometry, transfected PEAK cells
T2 construct: whole, on cells; also called CD66c
T2 sequence (looked up): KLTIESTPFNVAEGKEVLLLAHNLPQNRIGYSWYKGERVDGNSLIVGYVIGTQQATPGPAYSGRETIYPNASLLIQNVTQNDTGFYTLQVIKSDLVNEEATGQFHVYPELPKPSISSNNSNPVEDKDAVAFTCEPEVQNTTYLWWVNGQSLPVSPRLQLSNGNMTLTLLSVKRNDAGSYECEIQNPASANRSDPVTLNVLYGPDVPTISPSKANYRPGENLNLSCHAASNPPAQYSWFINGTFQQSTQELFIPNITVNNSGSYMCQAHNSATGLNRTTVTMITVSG
Source text: as §1, §2

human CEACAM4 = biological target: T3, human CEACAM4 (human, UniProt O75871 36-244); assay: flow cytometry, transfected PEAK cells
T3 construct: whole, on cells
T3 sequence (looked up): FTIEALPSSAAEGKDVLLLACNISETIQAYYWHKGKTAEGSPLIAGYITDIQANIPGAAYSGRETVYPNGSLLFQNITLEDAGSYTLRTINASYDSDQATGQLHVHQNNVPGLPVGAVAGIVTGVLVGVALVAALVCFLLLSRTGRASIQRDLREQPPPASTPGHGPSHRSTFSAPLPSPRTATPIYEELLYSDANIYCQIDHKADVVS
Source text: as §1, §2

human CEACAM1 = biological target: T4, human CEACAM1 (human, UniProt P13688 35-526); assay: flow cytometry, transfected PEAK cells
T4 construct: whole, on cells
T4 sequence (looked up): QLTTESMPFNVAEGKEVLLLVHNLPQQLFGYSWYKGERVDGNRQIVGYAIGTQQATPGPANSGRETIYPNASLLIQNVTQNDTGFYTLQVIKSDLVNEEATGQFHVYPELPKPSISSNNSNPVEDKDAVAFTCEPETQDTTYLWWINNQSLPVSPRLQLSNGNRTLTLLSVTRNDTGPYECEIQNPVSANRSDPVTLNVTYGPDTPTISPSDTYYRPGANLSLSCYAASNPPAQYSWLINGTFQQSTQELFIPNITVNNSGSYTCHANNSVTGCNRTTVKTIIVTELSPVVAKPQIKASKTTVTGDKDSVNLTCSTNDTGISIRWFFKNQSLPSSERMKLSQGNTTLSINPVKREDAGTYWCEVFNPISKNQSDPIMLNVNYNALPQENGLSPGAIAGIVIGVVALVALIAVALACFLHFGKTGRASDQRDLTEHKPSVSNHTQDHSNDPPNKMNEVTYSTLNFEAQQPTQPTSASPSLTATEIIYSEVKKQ
Source text: as §1, §2

[1] = biological target: T5, human CEACAM5 (carcinoembryonic antigen, CEA), cell surface (human, UniProt P06731 35-685); assay: cell-based or functional assay
T5 sequence (looked up): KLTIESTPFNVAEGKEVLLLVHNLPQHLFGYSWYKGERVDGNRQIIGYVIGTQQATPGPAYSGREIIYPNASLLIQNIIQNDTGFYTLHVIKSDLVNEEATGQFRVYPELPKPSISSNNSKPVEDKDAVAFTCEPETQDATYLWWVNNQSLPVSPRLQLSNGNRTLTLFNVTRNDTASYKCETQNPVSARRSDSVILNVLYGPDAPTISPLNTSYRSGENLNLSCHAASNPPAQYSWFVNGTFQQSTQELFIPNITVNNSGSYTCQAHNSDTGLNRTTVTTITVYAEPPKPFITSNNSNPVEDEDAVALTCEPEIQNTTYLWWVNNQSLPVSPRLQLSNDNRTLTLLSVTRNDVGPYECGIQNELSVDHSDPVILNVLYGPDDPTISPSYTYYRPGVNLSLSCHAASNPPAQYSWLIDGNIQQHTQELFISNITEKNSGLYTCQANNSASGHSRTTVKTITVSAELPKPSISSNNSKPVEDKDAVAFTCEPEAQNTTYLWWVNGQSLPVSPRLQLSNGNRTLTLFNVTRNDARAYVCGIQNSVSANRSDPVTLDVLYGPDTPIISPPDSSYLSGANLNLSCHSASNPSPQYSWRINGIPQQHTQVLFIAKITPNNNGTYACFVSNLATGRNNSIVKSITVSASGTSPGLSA

B1: AB17L3-1/N (bispecific antibody, human IgG1, kappa, lambda, L234A L235A)
heavy: EVQLVESGGGLVQPGGSLKLSCAASGFTFNTYAMNWVRQAPGKGLEWVGRIRSKYNNYATYYADSVKDRFTISRDDSKNTAYLQMNSLKTEDTAVYYCVRHGNFGNSYVSWFAYWGQGTLVTVSSASTKGPSVFPLAPSSKSTSGGTAALGCLVKDYFPEPVTVSWNSGALTSGVHTFPAVLQSSGLYSLSSVVTVPSSSLGTQTYICNVNHKPSNTKVDKRVEPKSCDKTHTCPPCPAPEAAGGPSVFLFPPKPKDTLMISRTPEVTCVVVDVSHEDPEVKFNWYVDGVEVHNAKTKPREEQYNSTYRVVSVLTVLHQDWLNGKEYKCKVSNKALAAPIEKTISKAKGQPREPQVYTLPPSREEMTKNQVSLTCLVKGFYPSDIAVEWESNGQPENNYKTTPPVLDSDGSFFLYSKLTVDKSRWQQGNVFSCSVMHEALHNHYTQKSLSLSPG
light 1: EIVLTQSPATLSLSPGERATLSCRASQSVNSNLNWYQQKPGQAPRLLIYHGSNRATGIPARFSGSGSGTDFTLTISSLEPEDFAVYYCQQFDYFKEHNTFGQGTKVEIKRTVAAPSVFIFPPSDEQLKSGTASVVCLLNNFYPREAKVQWKVDNALQSGNSQESVTEQDSKDSTYSLSSTLTLSKADYEKHKVYACEVTHQGLSSPVTKSFNRGEC
light 2: QTVVTQEPSLTVSPGGTVTLTCRSSTGAVTTSNYANWFQQKPGQAPRGLIGGTNKRAPGTPARFSGSLLGGKAALTLSGAQPEDEAEYYCALWYKQRWVFGGGTKLTVLGQPKAAPSVTLFPPSSEELQANKATLVCLISDFYPGAVTVAWKADSSPVKAGVETTTPSKQSNNKYAASSYLSLTPEQWKSHRSYSCQVTHEGSTVEKTVAPTECS
notes: Kappa-lambda body, lead optimization wave 1
Human CEACAM3
  binding result: no binding (tested: 10 mcg/ml)
Human CEACAM6
  binding result: no binding (tested: 10 mcg/ml)
Human CEACAM4
  binding result: no binding (tested: 10 mcg/ml)
Human CEACAM1
  binding result: no binding (tested: 10 mcg/ml)
[1]
  Killing EC50, HPAFII cells (TDCC, LDH release): 0.16 nM
  Killing EC50, LS174T cells (TDCC, LDH release): 0.25 nM
  Killing EC50, MKN45 cells (TDCC, LDH release): 0.11 nM

B2: AB72L3-1/N (bispecific antibody, human IgG1, kappa, lambda, L234A L235A)
heavy: B1 heavy
light 1: B1 light 1 with G51S, S52T, A55P, T56R, H97Y
light 2: B1 light 2
notes: Kappa-lambda body, lead optimization wave 2
Human CEACAM3
  binding result: no binding (tested: 10 mcg/ml)
Human CEACAM6
  binding result: no binding (tested: 10 mcg/ml)
Human CEACAM4
  binding result: no binding (tested: 10 mcg/ml)
Human CEACAM1
  binding result: no binding (tested: 10 mcg/ml)
[1]
  Killing EC50, HPAFII cells (TDCC, LDH release): 0.12 nM
  Killing EC50, LS174T cells (TDCC, LDH release): 0.11 nM
  Killing EC50, MKN45 cells (TDCC, LDH release): 0.02 nM
